Each block holds one substance with its values, some of them ahead of it.
What was measured:
[1] = biological target: T1, HK97 small terminase WT (bacteriophage HK97) (UniProt Q9MBW4); experiment: MST; settings: 25 mM Tris-HCl pH 7.5, 200 mM NaCl, 10 mM MgCl2; EMSA: 3 h at RT, gel at 4 C, 1 uM protein with 2 uM unlabelled or 30 nM labelled DNA; MST: +0.005-0.01% Tween …
T1 sequence: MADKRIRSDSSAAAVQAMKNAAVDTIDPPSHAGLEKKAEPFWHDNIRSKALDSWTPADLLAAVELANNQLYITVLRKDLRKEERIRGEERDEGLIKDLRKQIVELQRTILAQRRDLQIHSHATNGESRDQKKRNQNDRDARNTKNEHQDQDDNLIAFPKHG

[2] = biological target: HK97 small terminase (bacteriophage HK97); experiment: cryo-EM structure; small terminase with 31 bp dsDNA (cos 7-37), 1:2 protein to DNA, 25 mM Tris-HCl pH 7.5, 200 mM NaCl, 10 mM MgCl2; complex purified on S200 10/30; nonamer
[3] = biological target: HK97 small terminase Lys100Ala mutant (bacteriophage HK97); experiment: SEC; size exclusion chromatography of the purified mutant proteins (Supplementary Fig. 12); nonamer
[4] = biological target: HK97 small terminase Lys4Ala/Arg5Ala/Arg7Ala triple mutant (bacteriophage HK97); experiment: as above
[5] = tested on: HK97 small terminase R107A (bacteriophage HK97); experiment: MST; settings: 25 mM Tris-HCl pH 7.5, 200 mM NaCl, 10 mM MgCl2; EMSA: 3 h at RT, gel at 4 C, 1 uM protein with 2 uM unlabelled or 30 nM labelled DNA; MST: +0.005-0.01% Tween …
[6] = tested on: HK97 small terminase K4A/R5A/R7A (bacteriophage HK97); experiment: MST; settings: 25 mM Tris-HCl pH 7.5, 200 mM NaCl, 10 mM MgCl2; EMSA: 3 h at RT, gel at 4 C, 1 uM protein with 2 uM unlabelled or 30 nM labelled DNA; MST: +0.005-0.01% Tween …
[7] = biological target: HK97 small terminase Lys4Ala mutant (bacteriophage HK97); experiment: SEC; size exclusion chromatography of the purified mutant proteins (Supplementary Fig. 12); nonamer
[8] = biological target: HK97 small terminase Arg5Ala mutant (bacteriophage HK97); experiment: as above
[9] = biological target: HK97 small terminase Arg107Ala mutant (bacteriophage HK97); experiment: as above
[10] = biological target: HK97 small terminase Arg114Ala mutant (bacteriophage HK97); experiment: as above
[11] = biological target: HK97 small terminase Arg7Ala mutant (bacteriophage HK97); experiment: as above

Substance: cos71 (cos 31-100), lacks binding site
Kd [1]: 2040 nM

stoichiometry N [2]: 9
Substance: HK97 small terminase (natural protein)

stoichiometry N [3]: 9
Substance: HK97 small terminase Lys100Ala mutant (natural protein)

stoichiometry N [4]: 9
Substance: HK97 small terminase Lys4Ala/Arg5Ala/Arg7Ala triple mutant (natural protein)

Substance: cos100 (cos -20 to 80)
Kd [5]: 790 nM
Kd [1]: 500 nM
Kd [6]: 850 nM

stoichiometry N [7]: 9
Substance: HK97 small terminase Lys4Ala mutant (natural protein)

stoichiometry N [8]: 9
Substance: HK97 small terminase Arg5Ala mutant (natural protein)

stoichiometry N [9]: 9
Substance: HK97 small terminase Arg107Ala mutant (natural protein)

stoichiometry N [10]: 9
Substance: HK97 small terminase Arg114Ala mutant (natural protein)

stoichiometry N [11]: 9
Substance: HK97 small terminase Arg7Ala mutant (natural protein)
